Results taken from patent US10465009B2, “BCMA antigen binding proteins” (Amgen Inc., priority 2012, dated 2019).

Key:
BCMA = target: T1, BCMA (Homo sapiens, UniProt Q02223, N81S); assay: FACS binding on cells transiently transfected to express full length BCMA; settings: MFI vs negative control
T1 construct: cells transiently transfected to express full length BCMA, TACI, or BAFF-R; expressed in transfected cells
T1 sequence (Q02223 1-184 N81S): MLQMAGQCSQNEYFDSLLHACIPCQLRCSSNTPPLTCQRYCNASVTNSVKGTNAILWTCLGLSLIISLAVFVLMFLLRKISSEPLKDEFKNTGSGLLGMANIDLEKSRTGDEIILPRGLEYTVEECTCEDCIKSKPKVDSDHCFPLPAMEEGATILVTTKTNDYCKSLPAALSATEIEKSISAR
Method: An important criterion is exquisite selectivity for wild-type human BCMA expressed on the surface of cells. FACS binding on cells transiently transfected to express full length BCMA, TACI, or BAFF-R was performed using standard techniques. Approximately 40×10^6 of the transiently-transfected target cells were resuspended in a staining solution (2% goat serum, 1% rabbit serum, 0.02% azide in PBS) and aliquoted into round-bottom, 96-well plate (Corning Incorp., Acton, Mass.) as per the experiment design. The cells were incubated at 4 degrees celsius for 30 minutes to block non-specific sites. The antibodies were titrated into the staining solution. The cells were rinsed in a rinse solution (PBS+0.02% azide) by resuspending the cells in 200 ul/well. The cells were centrifuged at 1500 rpm at 4 degrees celsius for 7 minutes. The rinse solution was removed and the rinse step was repeated. The cells were resuspended in the appropriate antibody solution (see the matrix in TABLE 4) at 30 ul/well and incubated at 4 degrees celsius for 30 minutes. […] For the mouse IgG1 negative control and the two mouse antibodies (1.183 and 1.288), the secondary reagent was an anti-mouse IgG-PE conjugate (BD Pharmingen Cat. 550589). The cells/antibodies were rinsed as described above to remove excess/unbound antibody. […] Samples were read at 532 nm wavelength on FACS. […]

huBCMA on H929 cells = target: T2, huBCMA on H929 cells (Homo sapiens, UniProt Q02223, N81S); assay: FACS binding to native BCMA on H929 myeloma cells; settings: flow cytometry; muteins relative to parental 2A1
T2 construct: endogenous in cells; host or cells: H929 human multiple myeloma cell line
T2 sequence (Q02223 1-184 N81S): T1 sequence (Q02223 1-184 N81S)
Method: Approximately 10 to 40×10^6 of H929 myeloma cells were resuspended in a staining solution (2% goat serum, 1% rabbit serum, 0.02% azide in PBS) and aliquoted into round-bottom, 96-well plate (Corning Incorp., Acton, Mass.) as per the experiment design. The cells were incubated at 4 degrees celsius for 30 minutes to block non-specific sites. The antibodies were titrated into the staining solution. The cells were rinsed in a rinse solution (PBS+0.02% azide) by resuspending the cells in 200 ul/well. The cells were centrifuged at 1500 rpm at 4 degrees celsius for 7 minutes. The rinse solution was removed and the rinse step was repeated. […] The huIgG1 negative control's secondary reagent was a biotinylated anti-huIgG (Jackson Labs, Bar Harbor, Me., Cat. 109-065-098), followed by a streptavidin-phycoerythrin (SA-PE) conjugate (BD Pharmingen, San Diego, Calif., Cat. 554061). […] The cells/antibodies were rinsed as described above to remove excess/unbound antibody. […] Samples were read at 532 nm wavelength on FACS.
To further characterize the engineered mutein antibodies, they were tested for the ability to bind BCMA by FACS analysis. […] The supernatants were removed and the cell pellets were resuspended in 0.2 mL/tube 4% paraformaldehyde in PBS and analyzed by flow cytometry

B1: 1E1: fully human anti-huBCMA mAb, Vh SEQ ID NO:212, Vl SEQ ID NO:246 (antibody, V domains shown)
VH: QVQLVQSGAEVKKPGASVKVSCKASGYTFTGHYIHWVRQAPGQGLEWMGWIYPNSGGTNYAQKFQGRVTMTRDTSISTAYMELSRLRSDDSAVYYCAREGMVTGDYYYYRMDVWGQGTTVIVSS
VL: QPVLTQPPSASASLGASVTLTCSLSSGYSNYKVDWYQQRPGKGPRFVMRVGIGGIVGSKGDGIPDRFSVLGSGLNRYLTIKNIQEEDESDFHCGADHGSGNNFVYVFGTGTKVTVLG
- BCMA (FACS binding) (BCMA): + (A sample was considered positive for binding if the MFI was two times the negative control value)
- binding to BCMA on H929 cells (huBCMA on H929 cells): bound to human BCMA
